Test results taken from patent US20240343817A1 (STAIDSON BEIJING BIOPHARMACEUTICALS, published 2024).

T1: human TNFRSF11A (human, UniProt Q9Y6Q6 30-212)
T1 construct: Bought protein coated on the ELISA plate; also called TNFRSF11A (Sino biological, 16078-h08h)
T1 sequence (looked up): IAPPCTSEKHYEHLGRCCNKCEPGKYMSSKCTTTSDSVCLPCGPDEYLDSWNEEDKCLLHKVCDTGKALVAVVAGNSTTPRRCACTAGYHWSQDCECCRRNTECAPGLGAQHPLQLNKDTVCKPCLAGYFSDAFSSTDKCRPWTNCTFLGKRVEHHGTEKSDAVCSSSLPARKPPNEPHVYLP

T2: human TNFR2 (human, UniProt P20333 23-257)
T2 construct: Bought protein coated on the ELISA plate; also called TNFR2 (Sino biological, 10417-h08h); INFR2
T2 sequence (looked up): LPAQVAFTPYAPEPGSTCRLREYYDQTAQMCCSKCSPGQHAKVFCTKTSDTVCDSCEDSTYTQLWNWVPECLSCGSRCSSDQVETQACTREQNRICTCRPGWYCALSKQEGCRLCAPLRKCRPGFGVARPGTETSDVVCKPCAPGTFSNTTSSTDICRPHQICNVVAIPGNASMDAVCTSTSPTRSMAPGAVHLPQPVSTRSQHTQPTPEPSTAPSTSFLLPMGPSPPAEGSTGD


Key:
[1] = target: T3, human CD40 extracellular domain (recombinant) (human, UniProt P25942 21-193); test: ELISA; CD40 extracellular domain coated 0.1 µg/well, antibody titrated from 10 µg/mL 1:3, anti-human IgG-HRP
T3 construct: Extracellular domain expressed in 293F cells; also called hCD40; CD40-His; not shown: tag (His, Avi-His, mouse Fc or human Fc)
T3 sequence (P25942 21-193): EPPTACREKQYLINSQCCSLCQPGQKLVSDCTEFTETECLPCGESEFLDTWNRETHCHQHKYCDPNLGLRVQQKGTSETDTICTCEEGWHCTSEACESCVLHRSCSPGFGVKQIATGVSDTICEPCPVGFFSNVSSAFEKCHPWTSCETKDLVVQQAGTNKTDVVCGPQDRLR
Description: (§1) ELISA Binding Assay: The selected monoclonal full-length antibodies D1, D2, D3, D5, D6, or D7 were subjected to binding assays with CD40 extracellular domain of different species, respectively. The assay was designed to identify full-length antibodies that cross-reacted with CD40 of different species. Briefly, the human or Rhesus monkey CD40 prepared in example 1 was dissolved in PBS and coated on […] with 0.1 μg/well followed by incubation at 4° C. overnight. The 96-well plates were washed with TBST before adding antibodies, blocked with 5% milk for 1-2 h at 37° C., and washed again with TBST. Firstly, each antibody sample was diluted to 10 μg/mL, and then serially diluted at a 1:3 ratio. 100 μL of serially diluted antibodies were added to each well and incubated for 1 h at 37° C. After washing with TBST for 6 times, 100 μL of the secondary antibody (goat anti-human IgG-HRP (Sigma. A8667)) was added to each well and incubated for 1 h at 37° C. After washing with TBST for 3 times, TMB was added with 100 μL/well and incubated for 10-20 minutes at 37° C. 2M H₂SO₄ was used to stop the reaction and plates were read for the absorbance at 450 nm. The ELISA results were then analyzed and the binding curves were generated by PRISM.

[2] = target: T4, Rhesus monkey CD40 extracellular domain (recombinant) (Rhesus monkey, UniProt F6SNI1 21-193); test: as above
T4 construct: extracellular domain; also called RheCD40
Description: as §1

human CD40 on cells [3] = target: T5, human CD40 on cells (human, UniProt P25942 21-277); test: cell-based or functional assay
T5 sequence (P25942 21-277 limits assumed): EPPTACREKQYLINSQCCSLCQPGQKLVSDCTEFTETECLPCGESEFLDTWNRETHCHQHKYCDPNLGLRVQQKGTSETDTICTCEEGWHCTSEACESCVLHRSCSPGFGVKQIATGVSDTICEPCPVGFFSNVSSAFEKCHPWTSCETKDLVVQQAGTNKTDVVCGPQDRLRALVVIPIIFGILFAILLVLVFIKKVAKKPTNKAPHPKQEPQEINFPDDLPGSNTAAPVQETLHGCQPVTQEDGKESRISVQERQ

[4] = target: T3, human CD40 extracellular domain …; test: ELISA, plate coated with recombinant human CD40 extracellular domain, antibody (human IgG4 format) in serial dilution, anti-human IgG-HRP, OD450
Description: as §1
(§2) The biding affinity of the optimized full length CD40 antibodies with human or rhesus monkey CD40 was evaluated by Elisa according to the corresponding protocol as described in Example 2, and ASKP1240 was used as control.

[5] = target: T4, Rhesus monkey CD40 extracellular domain …; test: ELISA, plate coated with recombinant rhesus monkey CD40 extracellular domain, antibody (human IgG4 format) in serial dilution, anti-human IgG-HRP, OD450
Description: as §1, §2

human CD40 on cells [6] = target: T5, human CD40 on cells; test: cell-based or functional assay; remark: listed apart in the source
[7] = target: T3, human CD40 extracellular domain …; test: SPR, Biacore 8K; antibody on CM5 chip, hCD40 at various concentrations
Description: The binding affinity of the optimized anti-CD40 antibodies with human […] was characterized using Biacore 8K (GE). Anti-CD4 (antibodies were stabilized on sensor chip CM5 The affinities for hCD40 at various concentrations were measured. Using the SPR technology, the association and dissociation rates were measured, and binding affinity was determined.

human TNFRSF11A = target: T1, human TNFRSF11A; test: ELISA; protein coated, antibody titrated, anti-human IgG-HRP
Description: (§3) The cross-reactivities between anti-CD40 antibodies and the protein homologous with CD40 were detected. It was well known that there is high sequence homology among TNFR superfamily members. When compared with CD40 sequence. TNFRSF11A (38.95% homology) and INFR2 (37.20% homology) are with the highest homology. The cross-reactions between the two proteins and anti-CD40 antibody were detected by ELISA. respectively. Briefly, human TNFRSF11A (Sino biological, 16078-h08h), human TNFR2 (Sino biological, 10417-h08h) or the human CD40 extracellular domain protein prepared in example 1 was coated on ELISA plate and incubated at 4° C. overnight, respectively. After serial dilution, the optimized full-length anti-CD40 antibodies were added into 96 well plates and incubated respectively. After washing with TBST solution, the anti-human IgG-HRP antibody was added and incubated at RT. After washing with PBST, TMB was added into each well for development. Plates were read for the absorbance at 450 nm.

human TNFR2 = target: T2, human TNFR2; test: as above
Description: as §3

EC50 [1]	EC50 [2]	IC50, HEK-Blue CD40L NF-κB activation assay (SEAP), Fc-3*G4S-CD40L stimulus (human CD40 on cells [3])	EC50 (read off the curve) [4]	EC50 (read off the curve) [5]	IC50, HEK-Blue CD40L NF-κB activation assay (SEAP), antibody as human IgG4 (human CD40 on cells [6])	Kd [7]	koff [7]	kon [7]	binding result (human TNFRSF11A)	binding result (human TNFR2)	Binder
–	–	–	~0.2 µg/mL	~0.1 µg/mL	0.00908 µg/mL	2.74 nM	0.000596 s⁻¹	218000 M⁻¹ s⁻¹	–	–	D26 (antibody, human IgG4, V domains shown, also called optimized anti-CD40 antibody D26) VH: QVQLVQSGAEVKKPGASVKVSCKASVYSFTGYTVNWVRQAPGQRLEWMGLINPYNGRTTYNQKFKGRVTLTIDKSASTAYMELSSLRSEDTAVYYCASSYYSNPYANDYWGQGTLVTVSS VL: EIVMTQSPATLSVSPGERATLSCKASQNVHTRVAWYQQKPGQAPRLLIYLASDRRTGIPARFSGSGSGTEFTLTISSLQSEDFAVYYCLQHWNYPLTFGQGTKVEIK
–	–	–	~0.2 µg/mL	~0.1 µg/mL	0.0112 µg/mL	1.5 nM	0.000295 s⁻¹	196000 M⁻¹ s⁻¹	–	–	D49 (antibody, human IgG4, V domains shown, also called optimized anti-CD40 antibody D49) VH: QVQLVQSGAEVKKPGASVKVSCKASVYSFTGYTVNWVRQAPGQRLEWMGLINPYNGGTSYNQKFKGRVTLTIDKSASTAYMELSSLRSEDTAVYYCASSPYSNPYAMDYWGQGTLVTVSS VL: EIVMTQSPATLSVSPGERATLSCKASQNVHTRVAWYQQKPGQAPRLLIYLASDRRTGIPARFSGSGSGTEFTLTISSLQSEDFAVYYCLQHWTYPLTFGQGTKVEIK
–	–	–	~0.2 µg/mL	~0.1 µg/mL	0.00962 µg/mL	1.26 nM	0.000277 s⁻¹	221000 M⁻¹ s⁻¹	no binding (tested: 10 µg/mL)	no binding (tested: 10 µg/mL)	D42 (antibody, V domains shown, also called optimized anti-CD40 antibody D42) VH: QVQLVQSGAEVKKPGASVKVSCKASVYSFTGYTVNWVRQAPGQRLEWMGLIVPYNGGTTYNQKFKGRVTLTIDKSASTAYMELSSLRSEDTAVYYCASSRYSNPYAMDYWGQGTLVTVSS VL: EIVMTQSPATLSVSPGERATLSCKASQNVHTRVAWYQQKPGQAPRLLIYLASDRRTGIPARFSGSGSGTEFTLTISSLQSEDFAVYYCLQHWNYPLTFGQGTKVEIK

Second part, the binder before the results:

Binder	EC50 [1]	EC50 [2]	IC50, HEK-Blue CD40L NF-κB activation assay (SEAP), Fc-3*G4S-CD40L stimulus (human CD40 on cells [3])	EC50 (read off the curve) [4]	EC50 (read off the curve) [5]	IC50, HEK-Blue CD40L NF-κB activation assay (SEAP), antibody as human IgG4 (human CD40 on cells [6])	Kd [7]	koff [7]	kon [7]	binding result (human TNFRSF11A)	binding result (human TNFR2)
D1 (antibody, V domains shown, Full-length chimeric antibody: mouse variable domains with a human IgG1 or IgG4 heavy chain constant domain and a human kappa light chain constant domain; also called anti-CD40 antibody D1; mouse antibody D1) VH: EVQLQQSGPDLVKPGASMKISCKASVYSFTGYTVNWVKQSHGKSLEWIGLINPYNGGTTYNQKFKGKATLTIDKSSTTAYMELLSLTSEDSAVYYCASSYYSNPYAMDYWGQGTSVTVSS VL: DIVLNQSQKFMSTSVGDRVSITCKASQNVHTAVAWYQQKPGQSPKALIYLASDRRTGIPDRFTGSGSGTDFTLTIDNVQSEDLADYFCLQHWNYPLTFGAGTKLELK	0.236 µg/mL	0.227 µg/mL	0.0215 µg/mL	–	–	–	–	–	–	–	–
D2 (antibody, V domains shown, Full-length chimeric antibody: mouse variable domains with a human IgG1 or IgG4 heavy chain constant domain and a human kappa light chain constant domain; also called anti-CD40 antibody D2) VH: EVHVKQSGAELVKPGASVKLSCTASGFNIKDAYMHWVKQRPEQGLEWIGRIDPANGNTKYDPKFQGKASITTDTSSNTAYLQLSSLTSEDTAVYYCTPNYYGSRYPFAYWGQGTTVTVSS VL: DIVLTQSPAIMSASPGEKVSITCSASSSVSYMHWFQQKPGTSPKLWIYSTSNLASGVPARFSGSGSGTSYSLTISRMEADDAATYYCQQGSSYPLTFGAGTKLELK	0.193 µg/mL	0.473 µg/mL	0.0171 µg/mL	–	–	–	–	–	–	–	–
D6 (antibody, V domains shown, Full-length chimeric antibody: mouse variable domains with a human IgG1 or IgG4 heavy chain constant domain and a human kappa light chain constant domain; also called anti-CD40 antibody D6) VH: QVQLQQSGAELVRPGVSVKISCKGSGYTFTDHAIHWVKQSHARRLEWIGAISTNYGAATYNQKFKGKATMTVDKSSSTAYMELARLTSEDSAIYYCARRGSHGDWFAYWGQGTLVTVSA VL: DIELTQSPAIMSASPGEKVTITCSASSSVSYMHWFQQKPGTSPKLWIYSTSNLASGVPVRFSGSGSGTSYSLTISSMEAEDAATYYCHQYHRSPLTFGAGTKLELK	0.176 µg/mL	0.243 µg/mL	0.00712 µg/mL	–	–	–	–	–	–	–	–
D7 (antibody, V domains shown, Full-length chimeric antibody: mouse variable domains with a human IgG1 or IgG4 heavy chain constant domain and a human kappa light chain constant domain; also called anti-CD40 antibody D7) VH: QIQLLQSGAELVKPGASVKLSCTASGFNIKDAYMHWVKQRPEQGLEWIGRIDPANGYTKSDPKFQGKATITSDTSSNTAYLQLSSLTSEDTAVYYCAPNYYGSRYPFAYWGQGTLVTVSS VL: QIVLTQSPAIMSASPGEKVTITCSASSSVSYMHWFQQKPGTSPKIWIYFTSNLASGVPARFSGSGSGTSYSLTISRMEAEDAATYYCQQGSTYPLTFGAGTKLELK	0.261 µg/mL	0.133 µg/mL	0.017 µg/mL	–	–	–	–	–	–	–	–
D3 (antibody, V domains shown, Full-length chimeric antibody: mouse variable domains with a human IgG1 or IgG4 heavy chain constant domain and a human kappa light chain constant domain; also called anti-CD40 antibody D3) VH: EVQLQQSGAELVKPGASVKLSCTASGFNIKDSYMHWVKQRPEQGLEWIGRIDPANGNTKYDPKFQGKATITADTSSNTAYLQLSSLTSEDTAVYYCVPNYYGAAYPFAYWGQGTTVTVSS VL: DIVLIQSPAIMSASPGEKVTITCSASSSVSYMHWFQQKPGTSPKVWIYSTSNLASGVPARFGGSGSGTSYSLTISRMEAEDAATYYCQQGSSYPLTFGAGTKLELK	0.224 µg/mL	0.0743 µg/mL	0.0224 µg/mL	–	–	–	–	–	–	–	–
D5 (antibody, V domains shown, Full-length chimeric antibody: mouse variable domains with a human IgG1 or IgG4 heavy chain constant domain and a human kappa light chain constant domain; also called anti-CD40 antibody D5) VH: EVQLQQSGAELVSPGVSVKISCKGSGYTFTDHGMHWVKQSHAKSLEWIGVISTSYGVATYNQKFKGKATLSVDKSSSTAYLELARLTSEDSAIYYCARRDSKSPFDYWGQGTTLTVSS VL: QIVLTQSPAIMSASPGEKITITCSASSSISSNYLHWYQQKPGFSPKLLIYRTSNLASGVPARFSGSGSGTSYSLTISSMEAEDAATYYCHQYHRSPLTFGAGTKLELK	0.274 µg/mL	0.627 µg/mL	0.0142 µg/mL	–	–	–	–	–	–	–	–
D21 (antibody, human IgG4, V domains shown, also called optimized anti-CD40 antibody D21) VH: QVQLVQSGAEVKKPGASVKVSCKASVYSFTGYTVNWVRQAPGQRLEWMGLINPRNGGTTYNQKFKGRVTLTIDKSASTAYMELSSLRSEDTAVYYCAWSYYSNPYAMDYWGQGTLVTVSS VL: EIVMTQSPATLSVSPGERATLSCKASQNVHTRVAWYQQKPGQAPRLLIYLASDRRTGIPARFSGSGSGTEFTLTISSLQSEDFAVYYCLQHWNYPLTFGQGTKVEIK	–	–	–	~0.2 µg/mL	~0.1 µg/mL	0.0102 µg/mL	2.54 nM	0.000606 s⁻¹	238000 M⁻¹ s⁻¹	–	–
